Results published in the supplement of paper PMC10065799, “High-throughput profiling of sequence recognition by tyrosine kinases and SH2 domains using bacterial peptide display” (eLife, 2023).

Legend:
SHP2-C SH2 = assay: SH2 binding enrichment of the phosphorylated peptide, bacterial display (enrichment ratio); higher = better substrate or ligand; peptides without Tyr show the background
Grb2 SH2 = Grb2 SH2 (UniProt P62993); assay: as above
c-Src SH2 = assay: as above
MERTK = MERTK (UniProt Q12866); assay: phosphorylation enrichment, bacterial display (enrichment ratio); higher = better substrate or ligand; peptides without Tyr show the background
Fer (mouse) = assay: as above
FGFR3 = FGFR3 (UniProt P22607); assay: as above
c-Src = assay: as above
Fes = Fes (UniProt P07332); assay: as above
Sequence of Fes (P07332 whole entry, looked up): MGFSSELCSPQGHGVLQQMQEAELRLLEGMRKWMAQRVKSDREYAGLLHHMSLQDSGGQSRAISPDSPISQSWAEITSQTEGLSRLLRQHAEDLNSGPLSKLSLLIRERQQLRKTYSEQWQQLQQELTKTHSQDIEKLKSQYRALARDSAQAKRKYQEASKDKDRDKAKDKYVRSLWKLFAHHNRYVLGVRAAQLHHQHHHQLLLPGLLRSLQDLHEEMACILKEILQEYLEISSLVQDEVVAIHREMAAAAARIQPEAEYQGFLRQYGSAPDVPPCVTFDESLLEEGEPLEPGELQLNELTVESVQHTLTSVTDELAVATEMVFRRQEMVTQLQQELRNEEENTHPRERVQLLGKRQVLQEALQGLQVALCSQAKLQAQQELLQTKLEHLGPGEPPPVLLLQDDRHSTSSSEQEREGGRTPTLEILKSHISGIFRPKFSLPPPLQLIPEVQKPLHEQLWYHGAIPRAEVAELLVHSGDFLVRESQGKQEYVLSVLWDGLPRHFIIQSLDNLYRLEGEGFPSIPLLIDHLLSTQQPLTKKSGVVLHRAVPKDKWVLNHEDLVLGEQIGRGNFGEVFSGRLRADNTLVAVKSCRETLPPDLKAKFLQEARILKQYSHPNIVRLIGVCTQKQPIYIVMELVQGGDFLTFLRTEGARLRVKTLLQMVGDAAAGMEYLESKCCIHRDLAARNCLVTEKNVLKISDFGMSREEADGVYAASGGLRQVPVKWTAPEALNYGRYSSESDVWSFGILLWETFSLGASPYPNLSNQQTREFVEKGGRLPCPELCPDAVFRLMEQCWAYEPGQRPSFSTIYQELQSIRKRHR

Fyn = Fyn (UniProt P06241); assay: as above
FGFR1 = FGFR1 (UniProt P11362); assay: as above
Sequence of FGFR1 (P11362 whole entry, looked up): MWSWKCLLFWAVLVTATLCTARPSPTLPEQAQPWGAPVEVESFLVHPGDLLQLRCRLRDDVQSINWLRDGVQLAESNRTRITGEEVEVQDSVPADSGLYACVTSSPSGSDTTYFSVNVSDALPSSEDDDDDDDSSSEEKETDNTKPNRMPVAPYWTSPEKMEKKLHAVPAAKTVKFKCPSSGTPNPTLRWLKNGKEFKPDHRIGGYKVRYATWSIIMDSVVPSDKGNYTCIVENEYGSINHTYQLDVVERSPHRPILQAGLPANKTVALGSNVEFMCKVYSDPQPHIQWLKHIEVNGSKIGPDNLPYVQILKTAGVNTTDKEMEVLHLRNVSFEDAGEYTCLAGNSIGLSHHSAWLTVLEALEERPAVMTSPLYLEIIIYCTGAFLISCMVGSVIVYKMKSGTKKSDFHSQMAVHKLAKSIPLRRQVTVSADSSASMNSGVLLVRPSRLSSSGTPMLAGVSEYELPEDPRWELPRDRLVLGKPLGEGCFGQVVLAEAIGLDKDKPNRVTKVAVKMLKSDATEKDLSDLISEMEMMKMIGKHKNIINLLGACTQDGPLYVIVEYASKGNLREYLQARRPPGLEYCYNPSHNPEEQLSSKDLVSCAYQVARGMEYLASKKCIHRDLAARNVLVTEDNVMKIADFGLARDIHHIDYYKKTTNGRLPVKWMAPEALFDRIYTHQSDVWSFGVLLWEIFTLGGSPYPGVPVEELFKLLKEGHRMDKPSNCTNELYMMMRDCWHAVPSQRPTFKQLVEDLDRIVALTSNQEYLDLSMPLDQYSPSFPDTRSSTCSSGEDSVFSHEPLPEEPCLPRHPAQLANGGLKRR

AncSZ = assay: as above
EPHB2 = EPHB2 (UniProt P29323); assay: as above
Sequence of EPHB2 (P29323 whole entry, looked up): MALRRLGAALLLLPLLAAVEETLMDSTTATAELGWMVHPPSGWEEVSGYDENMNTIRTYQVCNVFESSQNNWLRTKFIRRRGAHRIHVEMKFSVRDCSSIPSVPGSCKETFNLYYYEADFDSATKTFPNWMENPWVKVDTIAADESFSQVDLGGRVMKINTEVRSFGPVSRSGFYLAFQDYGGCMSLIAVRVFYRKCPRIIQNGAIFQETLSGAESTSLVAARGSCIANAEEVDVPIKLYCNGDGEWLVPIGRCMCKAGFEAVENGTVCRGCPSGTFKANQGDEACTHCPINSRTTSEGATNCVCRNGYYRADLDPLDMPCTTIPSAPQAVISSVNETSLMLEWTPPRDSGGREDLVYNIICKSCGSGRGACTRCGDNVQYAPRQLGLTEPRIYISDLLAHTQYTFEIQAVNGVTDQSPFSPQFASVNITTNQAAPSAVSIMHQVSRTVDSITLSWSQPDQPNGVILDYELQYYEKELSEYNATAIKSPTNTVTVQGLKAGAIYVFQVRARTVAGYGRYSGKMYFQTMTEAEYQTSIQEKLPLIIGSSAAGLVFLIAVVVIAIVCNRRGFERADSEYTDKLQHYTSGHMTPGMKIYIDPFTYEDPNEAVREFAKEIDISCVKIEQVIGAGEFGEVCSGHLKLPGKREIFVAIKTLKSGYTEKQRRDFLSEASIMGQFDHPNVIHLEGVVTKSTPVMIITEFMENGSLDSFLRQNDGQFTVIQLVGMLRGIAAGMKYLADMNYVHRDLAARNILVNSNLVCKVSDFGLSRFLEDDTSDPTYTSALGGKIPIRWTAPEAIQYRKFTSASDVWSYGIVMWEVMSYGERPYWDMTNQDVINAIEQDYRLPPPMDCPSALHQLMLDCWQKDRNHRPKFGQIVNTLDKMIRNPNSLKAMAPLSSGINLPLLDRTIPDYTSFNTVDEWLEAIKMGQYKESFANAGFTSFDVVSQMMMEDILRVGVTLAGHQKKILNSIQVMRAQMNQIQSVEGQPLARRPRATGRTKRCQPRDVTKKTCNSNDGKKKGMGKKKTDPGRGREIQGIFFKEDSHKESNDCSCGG

EPHB1 = EPHB1 (UniProt P54762); assay: as above
Sequence of EPHB1 (P54762 whole entry, looked up): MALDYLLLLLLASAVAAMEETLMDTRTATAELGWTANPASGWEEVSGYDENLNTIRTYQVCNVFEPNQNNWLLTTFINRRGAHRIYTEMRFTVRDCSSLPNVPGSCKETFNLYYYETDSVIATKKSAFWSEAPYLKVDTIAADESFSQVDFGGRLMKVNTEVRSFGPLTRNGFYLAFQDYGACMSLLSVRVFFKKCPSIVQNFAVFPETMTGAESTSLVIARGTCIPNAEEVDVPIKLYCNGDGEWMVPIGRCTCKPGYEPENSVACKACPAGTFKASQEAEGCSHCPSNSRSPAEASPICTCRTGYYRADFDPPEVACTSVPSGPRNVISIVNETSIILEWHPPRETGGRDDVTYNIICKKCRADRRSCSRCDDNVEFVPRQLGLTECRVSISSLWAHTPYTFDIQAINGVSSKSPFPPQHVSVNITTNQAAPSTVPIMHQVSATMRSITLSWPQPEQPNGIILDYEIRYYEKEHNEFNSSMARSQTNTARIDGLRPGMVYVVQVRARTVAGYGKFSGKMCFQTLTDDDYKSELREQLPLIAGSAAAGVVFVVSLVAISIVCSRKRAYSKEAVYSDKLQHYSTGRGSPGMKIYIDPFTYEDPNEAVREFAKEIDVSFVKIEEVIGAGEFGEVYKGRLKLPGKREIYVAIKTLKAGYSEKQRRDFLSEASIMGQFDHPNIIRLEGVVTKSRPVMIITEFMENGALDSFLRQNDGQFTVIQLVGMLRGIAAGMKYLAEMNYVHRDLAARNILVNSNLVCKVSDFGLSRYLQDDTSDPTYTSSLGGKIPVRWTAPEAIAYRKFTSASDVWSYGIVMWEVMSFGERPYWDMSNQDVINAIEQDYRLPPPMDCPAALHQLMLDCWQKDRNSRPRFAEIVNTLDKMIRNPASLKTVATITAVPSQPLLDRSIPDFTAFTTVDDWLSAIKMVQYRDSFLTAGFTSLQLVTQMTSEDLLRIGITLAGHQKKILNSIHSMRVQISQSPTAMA

Jak2 = Jak2 (UniProt O60674); assay: as above
Sequence of Jak2 (O60674 whole entry, looked up): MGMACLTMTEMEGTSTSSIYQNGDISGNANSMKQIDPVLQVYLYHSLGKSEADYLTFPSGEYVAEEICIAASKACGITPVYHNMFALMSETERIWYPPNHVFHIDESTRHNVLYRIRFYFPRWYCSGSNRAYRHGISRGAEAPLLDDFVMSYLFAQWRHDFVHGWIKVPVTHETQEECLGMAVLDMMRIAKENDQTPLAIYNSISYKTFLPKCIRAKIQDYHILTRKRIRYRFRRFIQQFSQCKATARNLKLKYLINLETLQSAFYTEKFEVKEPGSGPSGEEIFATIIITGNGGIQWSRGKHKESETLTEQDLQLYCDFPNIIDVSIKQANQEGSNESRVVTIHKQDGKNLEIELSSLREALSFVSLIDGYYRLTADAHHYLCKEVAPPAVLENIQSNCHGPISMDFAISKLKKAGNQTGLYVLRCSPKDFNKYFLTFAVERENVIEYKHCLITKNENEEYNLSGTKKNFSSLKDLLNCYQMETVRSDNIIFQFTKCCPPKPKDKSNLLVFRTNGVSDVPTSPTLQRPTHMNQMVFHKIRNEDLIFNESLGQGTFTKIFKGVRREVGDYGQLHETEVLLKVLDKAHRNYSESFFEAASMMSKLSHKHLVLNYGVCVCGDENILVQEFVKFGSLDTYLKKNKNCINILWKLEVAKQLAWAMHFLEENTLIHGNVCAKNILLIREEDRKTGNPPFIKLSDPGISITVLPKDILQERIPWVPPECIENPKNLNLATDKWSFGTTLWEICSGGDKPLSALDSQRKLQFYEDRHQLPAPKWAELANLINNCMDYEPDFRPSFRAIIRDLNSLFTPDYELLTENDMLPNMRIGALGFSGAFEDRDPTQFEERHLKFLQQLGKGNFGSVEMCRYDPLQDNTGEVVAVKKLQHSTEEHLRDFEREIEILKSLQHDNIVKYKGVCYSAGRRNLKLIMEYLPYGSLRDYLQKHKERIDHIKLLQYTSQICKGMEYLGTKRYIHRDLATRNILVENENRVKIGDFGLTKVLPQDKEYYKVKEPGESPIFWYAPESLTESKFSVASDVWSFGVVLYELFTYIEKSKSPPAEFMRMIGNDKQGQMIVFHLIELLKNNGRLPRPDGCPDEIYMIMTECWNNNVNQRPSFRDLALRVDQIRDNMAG

Hck = Hck (UniProt P08631); assay: as above
c-Abl (mouse) = assay: as above
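Wherever SH2 binding enrichment of the phosphorylated peptide, bacterial display is given: peptide library displayed on the E. coli surface as eCPX fusions, selected cells deep-sequenced, score is each peptide's frequency after selection divided by its frequency in the input.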
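Wherever phosphorylation enrichment, bacterial display is given: 11-residue human phosphosite peptides and single-mutation variants displayed on the E. coli surface, counted by deep sequencing, each peptide's frequency after selection divided by its frequency in the unselected input library; frequency after pTyr selection over input frequency; kinase dosed for 20-30% of maximal phosphorylation in three min.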

Sequence of Grb2 SH2 (P62993 whole entry, looked up): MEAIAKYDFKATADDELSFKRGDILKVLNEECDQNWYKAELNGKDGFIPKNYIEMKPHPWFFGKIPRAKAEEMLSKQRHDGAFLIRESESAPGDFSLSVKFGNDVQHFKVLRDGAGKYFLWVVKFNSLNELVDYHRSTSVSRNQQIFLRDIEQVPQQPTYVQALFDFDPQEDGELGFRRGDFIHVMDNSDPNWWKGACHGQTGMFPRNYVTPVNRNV

| Sequence | SH2 binding enrichment (SHP2-C SH2) | SH2 binding enrichment (Grb2 SH2) | SH2 binding enrichment (c-Src SH2) | phosphorylation enrichment (MERTK) | phosphorylation enrichment (Fer (mouse)) | phosphorylation enrichment (FGFR3) | phosphorylation enrichment (c-Src) | phosphorylation enrichment (Fes) | phosphorylation enrichment (Fyn) | phosphorylation enrichment (FGFR1) | phosphorylation enrichment (AncSZ) | phosphorylation enrichment (EPHB2) | phosphorylation enrichment (EPHB1) | phosphorylation enrichment (Jak2) | phosphorylation enrichment (Hck) | phosphorylation enrichment (c-Abl (mouse)) |
| --- | --- | --- | --- | --- | --- | --- | --- | --- | --- | --- | --- | --- | --- | --- | --- | --- |
| GPGSGYTNIMR [PKLR_Y564_R559G] | 7.01 | 3.4 | 7.2 | 0.393 | 0.362 | 0.47 | 0.412 | 0.496 | 0.391 | 0.35 | 0.553 | 0.398 | 0.48 | 0.533 | 0.444 | 0.827 |
| GPIFRYDSGGA [CYP11B1_Y81_L83S] | 0.732 | 0.969 | 0.543 | 0.42 | 0.402 | 0.554 | 0.475 | 0.802 | 0.478 | 0.505 | 0.82 | 0.418 | 0.487 | 0.69 | 0.43 | 0.576 |
| GPQSLYNGLVA [UCP2_Y79_R76Q] | 0.546 | 0.664 | 0.697 | 0.723 | 0.552 | 0.515 | 1.83 | 0.614 | 0.85 | 0.493 | 0.622 | 0.551 | 0.477 | 0.744 | 3.69 | 0.628 |
| GQRDLYSGLNQ [CD3E_Y199] | 0.574 | 0.852 | 0.822 | 5.2 | 4.76 | 0.583 | 6.88 | 0.749 | 6.14 | 0.449 | 1.11 | 2.35 | 2.25 | 0.594 | 12.4 | 1.06 |
| GRLPEYNTRIA [CCDC151_Y542] | 0.643 | 0.949 | 0.482 | 0.45 | 0.339 | 0.543 | 0.408 | 0.589 | 0.372 | 0.404 | 0.512 | 0.44 | 0.341 | 0.55 | 0.416 | 0.513 |
| GRSTCYWPRPR [GAGE12J_Y10_Y9C] | 0.831 | 1.03 | 0.507 | 0.567 | 0.602 | 0.531 | 0.649 | 0.686 | 0.543 | 0.538 | 0.762 | 0.512 | 0.502 | 0.885 | 0.557 | 0.697 |
| GSCQEYTGAPF [NAXD_Y85_G81S_YF] | 0.822 | 0.946 | 0.596 | 0.424 | 0.466 | 0.798 | 0.564 | 1.04 | 0.422 | 0.536 | 1.16 | 0.496 | 0.628 | 0.98 | 0.509 | 0.638 |
| GSIQQYIFKQE [PRG4_Y1271_YF] | 0.469 | 0.754 | 0.362 | 0.452 | 0.451 | 0.574 | 0.545 | 0.738 | 0.429 | 0.531 | 0.836 | 0.573 | 0.476 | 0.508 | 0.537 | 0.499 |
| GSIQQYTYKQE [PRG4_Y1271_I1272T] | 0.599 | 0.604 | 0.384 | 0.374 | 0.437 | 0.559 | 0.444 | 0.94 | 0.37 | 0.453 | 0.773 | 0.494 | 0.45 | 0.806 | 0.483 | 0.731 |
| GSLEDYVRETN [GIMAP6_Y176] | 0.656 | 0.785 | 0.541 | 0.442 | 0.398 | 0.661 | 0.424 | 0.869 | 0.468 | 0.501 | 1 | 0.573 | 0.438 | 0.724 | 0.54 | 0.619 |
| GSQERYFELVE [TSC2_Y407] | 0.499 | 0.689 | 2.07 | 0.489 | 0.541 | 0.826 | 0.509 | 1.27 | 0.462 | 0.947 | 1.13 | 0.571 | 0.577 | 1.17 | 0.466 | 0.813 |
| GSRGKYSSGFH [ATM_Y332_R337H] | 0.649 | 1.04 | 0.905 | 0.452 | 0.409 | 0.605 | 0.45 | 0.535 | 0.421 | 0.452 | 0.464 | 0.3 | 0.417 | 0.439 | 0.391 | 0.579 |
| GSTLSYFGLAT [P2RX7_Y343_A348T] | 0.751 | 0.893 | 0.595 | 0.637 | 0.545 | 1.36 | 0.595 | 0.912 | 0.639 | 1.36 | 1.09 | 0.5 | 0.635 | 5.4 | 0.687 | 0.998 |
| GTQGSYLLSRK [UGT3A1_Y123_C121G] | 0.821 | 0.584 | 0.392 | 0.433 | 0.392 | 0.355 | 0.555 | 0.56 | 0.4 | 0.366 | 0.523 | 0.411 | 0.48 | 0.615 | 0.49 | 0.606 |
| GTTIHYNYMCN [TP53_Y234_C229G] | 0.73 | 0.716 | 1.56 | 0.585 | 0.656 | 0.973 | 0.529 | 1.37 | 0.614 | 0.619 | 1.12 | 0.704 | 0.834 | 1.22 | 0.673 | 0.814 |
| GTVRDYPDFNP [ANXA3_Y15_S19N] | 0.609 | 0.874 | 0.536 | 0.304 | 0.407 | 0.526 | 0.357 | 0.796 | 0.404 | 0.403 | 0.785 | 0.431 | 0.519 | 0.9 | 0.418 | 0.663 |
| GVIRHYVVCST [BTK_Y334] | 0.529 | 0.819 | 0.495 | 0.447 | 0.566 | 0.813 | 0.444 | 1.25 | 0.535 | 0.555 | 1.13 | 0.712 | 0.68 | 1.12 | 0.536 | 0.87 |
| GVPLGYPIKAS [ELN_Y206_P211S] | 0.581 | 0.783 | 0.423 | 0.366 | 0.376 | 0.412 | 0.381 | 0.576 | 0.368 | 0.407 | 0.438 | 0.333 | 0.327 | 0.477 | 0.404 | 0.714 |
| GYAGKYIAMVM [CYP19A1_Y441_C437Y] | 0.563 | 0.883 | 0.732 | 0.479 | 0.545 | 0.584 | 0.381 | 0.904 | 0.489 | 0.521 | 0.752 | 0.483 | 0.525 | 0.644 | 0.526 | 0.862 |
| HDRNTYEKYLE [TF_Y666_G671E] | 1.14 | 0.681 | 1.62 | 0.506 | 0.715 | 0.748 | 0.995 | 1.21 | 0.856 | 0.584 | 1.07 | 0.595 | 0.505 | 1.24 | 0.736 | 1.08 |
| HESEIYCKVCF [CSRP3_Y57_YF] | 1.35 | 1.44 | 1.54 | 3.7 | 2.49 | 0.89 | 6.41 | 1.11 | 5.35 | 0.821 | 1.52 | 1.42 | 0.854 | 1.21 | 7.63 | 1.17 |
| HFMELYDLNRD [BBS2_Y648_R643H_YF] | 1.51 | 1.25 | 0.654 | 0.563 | 0.784 | 0.723 | 4.64 | 1.18 | 1.38 | 0.497 | 1.1 | 0.594 | 0.625 | 1.28 | 1.48 | 0.943 |
| HFPDVYAWEQL [ALX3_Y181_R183W_YF] | 0.662 | 1.23 | 0.809 | 2.25 | 11.3 | 0.674 | 5.25 | 1.46 | 7.03 | 0.616 | 1.2 | 0.935 | 0.922 | 0.893 | 3.06 | 0.632 |
| HHIDYYKKTTN [FGFR1_Y654] | 0.535 | 0.699 | 0.443 | 0.663 | 0.646 | 0.803 | 0.481 | 0.633 | 0.711 | 0.568 | 0.577 | 0.721 | 0.47 | 0.592 | 0.481 | 0.569 |
| HHTNEYEFDEL [TGM1_Y134_D132N_YF] | 0.783 | 0.678 | 0.828 | 0.607 | 0.558 | 0.832 | 0.939 | 1.42 | 1.13 | 0.702 | 1.56 | 1.01 | 0.691 | 0.884 | 0.719 | 0.624 |
| HIILLYIFLKN [STXBP1_Y411_R406H] | 1.72 | 1.86 | 1.51 | 0.657 | 0.495 | 1.08 | 0.568 | 1.6 | 0.447 | 0.755 | 1.27 | 0.567 | 0.906 | 1.16 | 0.501 | 1.2 |
| HILQLYRCREE [ALPK3_Y342_T338I] | 0.748 | 0.729 | 0.546 | 0.515 | 0.556 | 0.871 | 0.577 | 1.05 | 0.65 | 0.763 | 0.945 | 0.705 | 0.924 | 0.709 | 0.553 | 0.423 |
| HKETGYVVERP [BCLAF1_Y466_L461H] | 0.401 | 0.747 | 0.394 | 0.445 | 0.439 | 0.656 | 0.652 | 1.36 | 0.497 | 0.582 | 0.746 | 0.502 | 0.475 | 1.14 | 0.448 | 1.28 |
| HKLSSYEYDFE [BTK_Y40_Y39S] | 0.411 | 0.69 | 1.33 | 0.911 | 1.03 | 1.04 | 1.43 | 1.51 | 0.72 | 0.952 | 1.84 | 0.789 | 0.822 | 1.38 | 0.952 | 0.966 |
